Results reported in patent US20250049896A1 (Regeneron, published 2025).

Biological target: T1, Hmm-hTFRC (REGN2431), monomeric human transferrin receptor ectodomain with N-terminal hexahistidine-myc-myc … (human, UniProt P02786 89-760)
T1 construct: also called hmm.hTfR(C89-F763); His-myc-myc-hTFRC ecto
Assay: blocking ELISA, supernatant; Hmm-hTFRC binding to immobilized human holo-Tf
Experimental: In the blocking assay, the anti-human Transferrin goat IgG polyclonal antibody (anti-hTf pAb) was passively absorbed at a concentration of 2 micrograms/mL in PBS on a 96-well microtiter plate overnight at 4° C. […] To the same plate, human holo-Tf was then added at a concentration of 1 micrograms/mL in PBS+0.5% BSA for 2 hours at room temperature. […] After a 1-hour incubation, the mixtures were transferred to the human holo-Tf microtiter plates. […] The plates were developed using TMB substrate solution according to the manufacturer's recommended procedure and absorbance at 450 nm was measured on a Victor™ Multilabel Plate Reader.
The ability of the anti-TfR antibody to block human TFRC binding to human holo-Tf was evaluated using an ELISA-based blocking assay.

T1 sequence (P02786 other isoform, or with tags, fused parts or gaps): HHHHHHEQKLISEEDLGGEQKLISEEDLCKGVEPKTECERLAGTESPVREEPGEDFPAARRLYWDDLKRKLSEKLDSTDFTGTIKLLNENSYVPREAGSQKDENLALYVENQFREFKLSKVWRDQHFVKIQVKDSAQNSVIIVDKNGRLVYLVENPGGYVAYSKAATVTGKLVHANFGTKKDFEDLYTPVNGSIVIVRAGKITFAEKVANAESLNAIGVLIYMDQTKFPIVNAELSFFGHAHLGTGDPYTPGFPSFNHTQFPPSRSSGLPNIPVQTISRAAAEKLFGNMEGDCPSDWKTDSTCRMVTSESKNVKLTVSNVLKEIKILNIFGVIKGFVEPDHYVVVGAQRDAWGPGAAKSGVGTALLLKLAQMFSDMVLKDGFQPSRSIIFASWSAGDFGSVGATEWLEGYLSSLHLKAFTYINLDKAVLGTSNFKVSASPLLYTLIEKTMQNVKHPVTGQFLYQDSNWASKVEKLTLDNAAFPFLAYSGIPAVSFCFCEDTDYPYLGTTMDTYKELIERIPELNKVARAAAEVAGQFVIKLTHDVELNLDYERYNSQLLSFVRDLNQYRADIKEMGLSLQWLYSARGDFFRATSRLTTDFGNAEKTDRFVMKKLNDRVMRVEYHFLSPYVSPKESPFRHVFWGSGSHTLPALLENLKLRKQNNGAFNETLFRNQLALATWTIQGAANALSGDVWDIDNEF

Row | % Blocking [%] | Binder
1 | 20 | 12844B Fab (Fab, V domains shown, CHO supernatant) VH: EVQLVESGGSVVRPGGSLRLSCEASGFTFDDYGMSWVRQDPGKGLEWVSGINWNGDRTNYADSVKGRFIISRDNAKNSVYLQMNSLRAEDSALYHCARDQGLGVAATLDYWGQGTLVTVSS VL: not shown
2 | 18 | 12808B scFv (VK-VH) (scFv, CHO supernatant; Vk-3xG4S-Vh) scFv: DIQMTQSPSSLSASVGDRVTINCRASQGIRNDLGWYQQKPGKAPKRLIYAASSLQSGVPLRFSGSGSGTEFTLTINNLQPEDFATYYCLSHNSYPWTFGQGTKVEIKGGGGSGGGGSGGGGSQLQLQESGPGLVKPSETLSLTCTVSGESISSNTYYWGWIRQPPGKGLEWIGSIDYSGTTNYNPSLKSRVTISVDTSRNHFSLRLRSVTAADTAVYYCAREWGNYGYYYGMDVWGQGTTVTVSS
3 | 10 | 12799B scFv (VK-VH) (scFv, CHO supernatant; Vk-3xG4S-Vh) scFv: DIQMTQSPSSVSASVGDRVTITCRASQGIASWLAWYQQKPGKAPELLIYAASSLQGGVPSRFSGSGSGTDFTLTISSLQPEDFAIYYCQQANYFPWTFGQGTKVEIKGGGGSGGGGSGGGGSQITLKESGPTLVKPTQTLTLTCTFSGFSLSTSGVGVVWIRQPPGKALEWLALIYWNDHKRYSPSLGSRLTITKDTSKNQVVLTMTNMDPVDTATYYCAHYSGSYSYYYYGLDVWGQGTTVTVSS
4 | -2 | 12834B Fab (Fab, V domains shown, CHO supernatant) VH: QVQLVQSGAEVKKPGASVKVSCKASGYTFTSYGISWVRQAPGQGLEWMGWISVYHGNTNYAQKFQGRVTMTTDTSTSTAYMELRSLRSDDTAVYYCAREGYYDFWSGYYPFDYWGQGTLVTVSS VL: not shown
5 | 13 | 12839B Fab (Fab, V domains shown, CHO supernatant) VH: QVQLVESGGGVVQPGRSLRLSCAASGFPFSNYVMYWVRQAPGKGLEWVALIFFDGKKNYHADSVKGRFTITRDNSKNMLYLQMNSLRPEDAAVYYCAKIHCPNGVCYKGYYGMDVWGQGTTVTVSS VL: not shown
6 | 24 | 31863B Fab (Fab, V domains shown, CHO supernatant) VH: EVQLVESGGGLVQPGGSLRLSCAASGFTFNSYAMTWVRQAPGKGLEWVSFIGGSTGNTYYAGSVKGRFTISSDNSKKTLYLQMNSLRAEDTAVYYCAKGGAARRMEYFQHWGQGTLVTVSS VL: DIQMTQSPSSLSASIGDRVTITCRASQGISNYLAWYQQKPGKVPKLLIYAASTLQSGVPSRFSGSGSGTDFTLTISSLQPEDVATYYCQNHNSVPLTFGGGTKVEIKR
7 | 64 | 12833B Fab (Fab, V domains shown, CHO supernatant) VH: QVQLVESGGGVVQPGRSLRLSCAASGFTFSSFGMHWVRQAPGKGLEWVIFISYDGSDKYYADSVKGRFAISRDSSKNTLYLQMNSLRAEDTAVYYCAKENGILTDSYGMDVWGQGTTVTVSS VL: not shown
8 | 45 | 12801B Fab (Fab, V domains shown, CHO supernatant) VH: EVQLLESGGALVQPGGSLRLSCAASGFTFTSYAMHWVRQAPGKGLEWVSSIRGSGGGTYSADSVKGRFTISRDNSRDTLYLQMNSVRAEDTAVYYCARSHDYGAFDFFDYWGQGTLVTVSS VL: DIQMTQSPSSLSASVGDRVTITCRASQGIRTDLGWYQQKPGKAPKRLIYAASSLQSGVPSRFSGSGSGTEFTLTISSLRPEDFATFYCLQYNSYPLTFGGGTKVEIKR
9 | 29 | 12841B Fab (Fab, V domains shown, CHO supernatant; also called H1H12841B) VH: EVQLVESGGGLVQPGGSLRLSCAASGFTFSNYWMNWVRQAPGKGLEWVANIKEDGGKKLYVDSVKGRFTISRDNAKNSLFLQMNSLRAEDTAVYYCAREDTTLVVDYYYYGMDVWGQGTTVTVSS VL: not shown
10 | 78 | 12835B Fab (Fab, V domains shown, CHO supernatant) VH: EVQLVESGGGLIQPGGSLRLSCEASGFTFRNYEMNWVRQAPGKGLEWVSYISSSGNMKDYAESVKGRFTISRDNVKNSLQLQMNSLRVEDTAVYYCARDEFPYGMDVWGQGTTVTVSS VL: not shown
11 | 5 | 12799B Fab (Fab, V domains shown, CHO supernatant) VH: QITLKESGPTLVKPTQTLTLTCTFSGFSLSTSGVGVVWIRQPPGKALEWLALIYWNDHKRYSPSLGSRLTITKDTSKNQVVLTMTNMDPVDTATYYCAHYSGSYSYYYYGLDVWGQGTTVTVSS VL: DIQMTQSPSSVSASVGDRVTITCRASQGIASWLAWYQQKPGKAPELLIYAASSLQGGVPSRFSGSGSGTDFTLTISSLQPEDFAIYYCQQANYFPWTFGQGTKVEIKR
12 | 14 | 12812B Fab (Fab, V domains shown, CHO supernatant) VH: QVQLVQSGAEVKKPGSSVRVSCKASRGTFSSYAISWVRQAPGQGLEWMGGIIPIFGTANYAQKFLARVTITADESTSTAYMELSSLRSEDTAVYYCAREKGWNYFDYWGQGTLVTVSS VL: DIQMTQSPPSVSASVGDRVTITCRASQGISSWLAWYQQKPGKAPKLLIYAASSLQSGVPSRFSGSGSGTDFTLTISSLQPEDFATYYCQQANSFPRTFGQGTKVEIKR
13 | 12 | 12812B scFv (VK-VH) (scFv, CHO supernatant; Vk-3xG4S-Vh) scFv: DIQMTQSPPSVSASVGDRVTITCRASQGISSWLAWYQQKPGKAPKLLIYAASSLQSGVPSRFSGSGSGTDFTLTISSLQPEDFATYYCQQANSFPRTFGQGTKVEIKGGGGSGGGGSGGGGSQVQLVQSGAEVKKPGSSVRVSCKASRGTFSSYAISWVRQAPGQGLEWMGGIIPIFGTANYAQKFLARVTITADESTSTAYMELSSLRSEDTAVYYCAREKGWNYFDYWGQGTLVTVSS
14 | 3 | 12847B Fab (Fab, V domains shown, CHO supernatant) VH: EVQLVESGGGLVQPGRSLRLSCAASGFTFDDYAMNWVRQAPGKGLEWVSGISWSSGSMDYADSVKGRFTISRDNAKNSLYLQMNSLRTEDTALYYCAKAREVGDYYGMDVWGQGTTVTVSS VL: not shown
15 | 13 | 12848B Fab (Fab, V domains shown, CHO supernatant) VH: EVQLVESGGGLVQPGRSLTLSCAASGFTFDNFGMHWVRQGPGKGLEWVSGLTWNSGVIGYADSVKGRFTISRDNAKNSLYLQMNSLRPEDTALYYCAKDIRNYGPFDYWGQGTLVTVSS VL: not shown
16 | 15 | 12802B Fab (Fab, V domains shown, CHO supernatant) VH: QVQLVESGGGLVKPGGSLRLSCAASGFTFSDYFMSWIRQAPGKGLEWVSYISSTGSTINYADSVKGRFTISRDNVKNSLYLQMTSLRVEDTAVYYCTRDNWNYEYWGQGTLVTVSS VL: EIVMTQSPATLSVSPGERATLSCRASQSVSINLAWYQQKPGQAPRLLIFVASTRATGIPARFSGSGSGTEFTLTISSLQSEDFATYYCQQYDIWPYTFGQGTKLEIKR
17 | 14 | 12816B Fab (Fab, V domains shown, CHO supernatant) VH: QVQLVESGGGLVKPGGSLRLSCAASGFTFSDYYMNWIRQAPGKGLEWVSYISSSGTTIYYADSVKGRFTISRDNAKKSLYLEMNSLRAEDTAVYYCAREGYGNDYYYYGIDVWGQGTTVTVSS VL: not shown
18 | 10 | 12843B Fab (Fab, V domains shown, CHO supernatant) VH: EVQLVESGGGLVQPGGSLRLSCAASGFTFNIFEMNWVRQAPGKGLEWISYISSRGTTTYYADSVRGRFTISRDNAKNSLYLQMNSLRAEDTAVYYCARDYEATIPFDFWGQGTLVTVSS VL: not shown
19 | 19 | 12808B scFv (VH-VK) (scFv) QLQLQESGPGLVKPSETLSLTCTVSGESISSNTYYWGWIRQPPGKGLEWIGSIDYSGTTNYNPSLKSRVTISVDTSRNHFSLRLRSVTAADTAVYYCAREWGNYGYYYGMDVWGQGTTVTVSSDIQMTQSPSSLSASVGDRVTINCRASQGIRNDLGWYQQKPGKAPKRLIYAASSLQSGVPLRFSGSGSGTEFTLTINNLQPEDFATYYCLSHNSYPWTFGQGTKVEIK
20 | 16 | 12808B Fab (Fab, V domains shown, CHO supernatant) VH: QLQLQESGPGLVKPSETLSLTCTVSGESISSNTYYWGWIRQPPGKGLEWIGSIDYSGTTNYNPSLKSRVTISVDTSRNHFSLRLRSVTAADTAVYYCAREWGNYGYYYGMDVWGQGTTVTVSS VL: DIQMTQSPSSLSASVGDRVTINCRASQGIRNDLGWYQQKPGKAPKRLIYAASSLQSGVPLRFSGSGSGTEFTLTINNLQPEDFATYYCLSHNSYPWTFGQGTKVEIKR
21 | 17 | 12802B scFv (VK-VH) (scFv, CHO supernatant; Vk-3xG4S-Vh) scFv: EIVMTQSPATLSVSPGERATLSCRASQSVSINLAWYQQKPGQAPRLLIFVASTRATGIPARFSGSGSGTEFTLTISSLQSEDFATYYCQQYDIWPYTFGQGTKLEIKGGGGSGGGGSGGGGSQVQLVESGGGLVKPGGSLRLSCAASGFTFSDYFMSWIRQAPGKGLEWVSYISSTGSTINYADSVKGRFTISRDNVKNSLYLQMTSLRVEDTAVYYCTRDNWNYEYWGQGTLVTVSS
22 | 37 | 12801B scFv (VH-VK) (scFv) EVQLLESGGALVQPGGSLRLSCAASGFTFTSYAMHWVRQAPGKGLEWVSSIRGSGGGTYSADSVKGRFTISRDNSRDTLYLQMNSVRAEDTAVYYCARSHDYGAFDFFDYWGQGTLVTVSSDIQMTQSPSSLSASVGDRVTITCRASQGIRTDLGWYQQKPGKAPKRLIYAASSLQSGVPSRFSGSGSGTEFTLTISSLRPEDFATFYCLQYNSYPLTFGGGTKVEIK
23 | 11 | 12845B Fab (Fab, V domains shown, CHO supernatant) VH: EVQLVESGGGLVQPGGSLRLSCAASGFTVSNYEMNWVRQAPGKGLEWVSYISSSTSNIYYADSVKGRFTISRDNAENSLYLQMNSLRVEDTAVYYCVRDGIVVVPVGRGYYYYGLDVWGQGTTVTVSS VL: not shown
24 | 27 | 12801B scFv (VK-VH) (scFv, CHO supernatant; Vk-3xG4S-Vh) scFv: DIQMTQSPSSLSASVGDRVTITCRASQGIRTDLGWYQQKPGKAPKRLIYAASSLQSGVPSRFSGSGSGTEFTLTISSLRPEDFATFYCLQYNSYPLTFGGGTKVEIKGGGGSGGGGSGGGGSEVQLLESGGALVQPGGSLRLSCAASGFTFTSYAMHWVRQAPGKGLEWVSSIRGSGGGTYSADSVKGRFTISRDNSRDTLYLQMNSVRAEDTAVYYCARSHDYGAFDFFDYWGQGTLVTVSS
